Series [1] has as its system pE2S six-finger protein (synthetic (Zif268/Sp1C framework)). The series can be described thus: EMSA. For orientation: Mobility shift assays separate free from complexed probe on a gel.
Series [2] has the same test system. In words: footprint. The following applies: DNase I footprint, 10 uM Zn, 4 C, mean of three; protected exactly the 18 bp site.
The test system of series [3] is gg1 six-finger protein (synthetic). Conditions: CITED ref 40 (Graslund 2005); cited from earlier work.

“CGGGGGGCTCCCCTGGTT (double strand) [E2S target site]”: the dissociation constant (Kd) – broadly, a measure of binding affinity in units of concentration – in series [1] stood at 3.25 nM.

“ERBB-2 promoter fragment, 267 bp (-209 to +3)”: the Kd in series [2] came out at 14 nM.

Consider “GTCAAGGCAAGGCTGGCC (double strand) [gg1 target site]”, for which, in series [3], the Kd was 0.7 nM.
